Source: the supplement of paper PMC7125110
± gives the standard error. This sample holds only a part of the variants without activity.

B1: glmS ribozyme (parent)
chain: AUAAAAGCGCCAGAACUACAGAAAUGUAGUUGACGAGGAGGAGGUUUAUCGAAUUUUCGGCGGAUGCCUCCAAA

Assays:
Conditions in all cases: with glucosamine-6-phosphate
[1] = variants of: B1; assay: self-cleavage kobs at 40 uM GlcN6P; higher = faster cleavage; RNA array
Summary of the method: (§1)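 kobs was derived by fitting per-tile medians to one- or two-exponential decays after normalising signals to baseline and to non-cleaving reference variants. Those signals came from barcoded ribozyme variants transcribed in situ by E. coli RNA polymerase on sequenced MiSeq chips, followed through a hybridised Cy3 probe at 37 °C and imaged over ~14 h. Glucosamine-6-phosphate (40 μM to 10 mM) in HEPES/KCl/Mg(OAc)2 buffer was flowed in. Weighted Michaelis–Menten fits across concentrations then gave kcat and KM.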

[2] = variants of: B1; assay: self-cleavage kobs at 160 uM GlcN6P; higher = faster cleavage; RNA array
Summary of the method: as §1

[3] = variants of: B1; assay: self-cleavage kobs at 640 uM GlcN6P; higher = faster cleavage; RNA array
Summary of the method: as §1

[4] = variants of: B1; assay: self-cleavage kobs at 2500 uM GlcN6P; higher = faster cleavage; RNA array
Summary of the method: as §1

[5] = variants of: B1; assay: self-cleavage kobs at 10000 uM GlcN6P; higher = faster cleavage; RNA array
Summary of the method: as §1

Variant | self-cleavage kobs at 40 uM GlcN6P [1] [s⁻¹] | self-cleavage kobs at 160 uM GlcN6P [2] [s⁻¹] | self-cleavage kobs at 640 uM GlcN6P [3] [s⁻¹] | self-cleavage kobs at 2500 uM GlcN6P [4] [s⁻¹] | self-cleavage kobs at 10000 uM GlcN6P [5] [s⁻¹]
A12U C67A | 0.000743 ± 7.6e-05 | 0.000983 ± 0.00027 | 0.00261 ± 0.00048 | 0.0101 ± 0.0038 | –
U47A G60A | < 1e-05 | < 1e-05 | – | < 1e-05 | –
C8A U30G | < 1e-05 | – | < 1e-05 | < 1e-05 | < 1e-05
U47G A52U U69G | 4.05e-05 ± 1.5e-05 | – | – | – | 3.79e-05 ± 1.3e-05
G9A A15G | < 1e-05 | < 1e-05 | < 1e-05 | – | 2.27e-05 ± 1.1e-05
A6G G60C | < 1e-05 | < 1e-05 | < 1e-05 | < 1e-05 | –
A36U U49G U65A | < 1e-05 | – | – | – | –
A42G A52U C70A | < 1e-05 | < 1e-05 | – | – | –
A12U U47C G60A | < 1e-05 | – | – | – | < 1e-05
C10U G13A A39U G60U | < 1e-05 | – | – | – | –
A6C U49G C67U | < 1e-05 | – | – | < 1e-05 | –
C10U A33G | < 1e-05 | < 1e-05 | < 1e-05 | – | < 1e-05
U30A G41A G60A C70U | < 1e-05 | – | – | – | –
C8U A14U G29C U46A G51A | < 1e-05 | – | – | – | < 1e-05
G51C A53U | < 1e-05 | < 1e-05 | – | < 1e-05 | –
U45C C50G | < 1e-05 | < 1e-05 | < 1e-05 | < 1e-05 | < 1e-05
G60U G62A C70U | < 1e-05 | – | – | – | < 1e-05
A6C G35A | < 1e-05 | < 1e-05 | < 1e-05 | < 1e-05 | < 1e-05
C10G A33U C67G | < 1e-05 | – | – | – | –
A64C C67G | < 1e-05 | < 1e-05 | < 1e-05 | < 1e-05 | –
G38C U65G | < 1e-05 | < 1e-05 | < 1e-05 | – | –
C67A C71U | 7.16e-05 ± 5.5e-06 | 0.000151 ± 1.3e-05 | 0.000414 ± 4.1e-05 | 0.000679 ± 7.6e-05 | 0.00183 ± 0.00025
G40C A42C | < 1e-05 | < 1e-05 | < 1e-05 | < 1e-05 | < 1e-05

Variant | self-cleavage kobs at 40 uM GlcN6P [1] [s⁻¹] | self-cleavage kobs at 160 uM GlcN6P [2] [s⁻¹] | self-cleavage kobs at 640 uM GlcN6P [3] [s⁻¹] | self-cleavage kobs at 2500 uM GlcN6P [4] [s⁻¹] | self-cleavage kobs at 10000 uM GlcN6P [5] [s⁻¹]
G29U C71A | 5.78e-05 ± 1.4e-05 | – | 0.000172 ± 4.8e-05 | 0.000288 ± 0.00011 | 0.00103 ± 0.00015
G35C U65C | < 1e-05 | < 1e-05 | < 1e-05 | < 1e-05 | < 1e-05
G7U A36C G59U | < 1e-05 | – | – | – | < 1e-05
G43C G44U C58U | < 1e-05 | – | – | < 1e-05 | –
A15C G62A | < 1e-05 | < 1e-05 | < 1e-05 | < 1e-05 | < 1e-05
G40C C61A | < 1e-05 | – | – | < 1e-05 | –
C16U C34G U57A G62U | < 1e-05 | – | – | – | < 1e-05
G32U G44A | < 1e-05 | – | – | – | –
A6G G7U | < 1e-05 | < 1e-05 | – | < 1e-05 | < 1e-05
G41U A64U | < 1e-05 | – | < 1e-05 | – | –
A53U G59U | < 1e-05 | – | – | – | 4.13e-05 ± 7.7e-06
G7C G51A | < 1e-05 | < 1e-05 | < 1e-05 | – | < 1e-05
A52C C68G | 4.36e-05 ± 1.5e-05 | – | 0.000126 ± 3.5e-05 | – | 2.34e-05 ± 1.1e-05
C10U U45A G51U C67A | < 1e-05 | – | – | – | –
G13U A52C | < 1e-05 | – | – | < 1e-05 | < 1e-05
G44U U57C | < 1e-05 | – | < 1e-05 | < 1e-05 | < 1e-05
U56G G63C | < 1e-05 | < 1e-05 | < 1e-05 | – | < 1e-05
G9C G51C | < 1e-05 | < 1e-05 | < 1e-05 | < 1e-05 | < 1e-05
C16A G35U G43C C68U | < 1e-05 | < 1e-05 | < 1e-05 | – | –
G37C A48U | < 1e-05 | – | – | – | < 1e-05
A6G G35U A52C C70G | < 1e-05 | – | – | – | –
C16A A52U G60A C71G | 5.98e-05 ± 2.3e-05 | – | – | – | –
A6C C50G C70U | 0.000111 ± 3.3e-05 | – | 0.000347 ± 0.0001 | 0.000114 ± 2.7e-05 | 0.000121 ± 2.9e-05

Variant | self-cleavage kobs at 40 uM GlcN6P [1] [s⁻¹] | self-cleavage kobs at 160 uM GlcN6P [2] [s⁻¹] | self-cleavage kobs at 640 uM GlcN6P [3] [s⁻¹] | self-cleavage kobs at 2500 uM GlcN6P [4] [s⁻¹] | self-cleavage kobs at 10000 uM GlcN6P [5] [s⁻¹]
A14U G41U C68A C70U | < 1e-05 | – | – | – | –
C50U G59C | < 1e-05 | < 1e-05 | < 1e-05 | < 1e-05 | < 1e-05
G7U A42G | < 1e-05 | < 1e-05 | < 1e-05 | < 1e-05 | < 1e-05
G41C U47C C68U | < 1e-05 | – | < 1e-05 | – | –
A52C C71G | < 1e-05 | – | < 1e-05 | < 1e-05 | –
A12G U27C G29U | < 1e-05 | – | < 1e-05 | < 1e-05 | –
G35A C50A G51A | < 1e-05 | – | < 1e-05 | < 1e-05 | –
A6U C11U G32U | < 1e-05 | – | – | – | < 1e-05
C8G C34A A53C G60C | < 1e-05 | < 1e-05 | < 1e-05 | < 1e-05 | –
G13A C50G C58A C70U | 6.62e-05 ± 1.6e-05 | – | – | 0.000539 ± 6.7e-05 | 9.7e-05 ± 2.5e-05
U30C G44A | < 1e-05 | < 1e-05 | < 1e-05 | – | < 1e-05
A14G A15G | 0.00218 ± 0.00029 | 0.0049 ± 0.0015 | 0.0134 ± 0.0029 | 0.0102 ± 0.0027 | 0.109 ± 0.035
U30C G38U C61U | < 1e-05 | – | – | – | –
A33U C34U | < 1e-05 | < 1e-05 | < 1e-05 | – | < 1e-05
A6G C50G A64U | 7.9e-05 ± 3.2e-05 | – | – | – | 0.000157 ± 2.5e-05
C10A A36C | < 1e-05 | – | < 1e-05 | < 1e-05 | < 1e-05
G35C U56G C58A U69A | < 1e-05 | < 1e-05 | – | < 1e-05 | –
C10U G66C | < 1e-05 | – | < 1e-05 | – | < 1e-05
G35A A48C U55G | < 1e-05 | – | – | – | –
C10U U54A C70A | < 1e-05 | – | – | – | –
A53U U54A C68U | 0.00036 ± 9.6e-05 | – | – | – | 0.013 ± 0.0042
G38U G66A U69G | 4.77e-05 ± 2e-05 | – | – | – | 4.02e-05 ± 1.6e-05
G35U G59C | < 1e-05 | < 1e-05 | < 1e-05 | < 1e-05 | < 1e-05

Variant | self-cleavage kobs at 40 uM GlcN6P [1] [s⁻¹] | self-cleavage kobs at 160 uM GlcN6P [2] [s⁻¹] | self-cleavage kobs at 640 uM GlcN6P [3] [s⁻¹] | self-cleavage kobs at 2500 uM GlcN6P [4] [s⁻¹] | self-cleavage kobs at 10000 uM GlcN6P [5] [s⁻¹]
A6G A52U C61G | < 1e-05 | – | – | – | –
G43U C58G | < 1e-05 | < 1e-05 | < 1e-05 | < 1e-05 | < 1e-05
C16A U49C C71G | < 1e-05 | – | – | – | < 1e-05
A14G U46G C67A | 0.000265 ± 6.3e-05 | – | – | – | 0.00474 ± 0.0012
G7C A15G A36U | < 1e-05 | – | < 1e-05 | – | < 1e-05
U30A A33U C34G G37A | < 1e-05 | – | – | – | –
A15C G37U | < 1e-05 | – | < 1e-05 | – | < 1e-05
A1U U2G A3G C8G A12U G63C C68A | < 1e-05 | – | – | < 1e-05 | < 1e-05
C34U G40U C50U | < 1e-05 | – | < 1e-05 | – | < 1e-05
A23C C71U | 0.00121 ± 0.0003 | 0.000719 ± 0.0002 | 0.00652 ± 0.0018 | – | –
G32A A33C C68G C71G | 5.72e-05 ± 1.6e-05 | – | – | – | 8.64e-05 ± 2e-05
G9A A14U C61A | < 1e-05 | – | – | < 1e-05 | –
A6G G43A | < 1e-05 | < 1e-05 | < 1e-05 | < 1e-05 | < 1e-05
C34U U69A | 0.000116 ± 2.4e-05 | – | 0.00034 ± 0.00012 | – | –
G32C G35A A48U A52U U54C C67U | < 1e-05 | < 1e-05 | < 1e-05 | – | –
U47A A53C | 0.000173 ± 2.9e-05 | 0.000506 ± 7.8e-05 | 0.00103 ± 0.00018 | 0.00465 ± 0.001 | 0.00663 ± 0.0016
A12C U57A G62A | < 1e-05 | – | – | – | –
A52G G60C | < 1e-05 | < 1e-05 | < 1e-05 | < 1e-05 | –
U30A C58A G60C U69G | < 1e-05 | – | – | – | < 1e-05
C11G G40A U45G | < 1e-05 | – | < 1e-05 | < 1e-05 | < 1e-05
U31C C70U | 0.000152 ± 1.5e-05 | 0.000343 ± 4.1e-05 | 0.000731 ± 6.7e-05 | 0.00284 ± 0.00074 | –
